Results published in patent US20220125891A1 (OSAKA UNIVERSITY, published 2022).
Where two headings read alike, the source gives them in different places. Positions of bridges follow the written chain, without caps; N, C: chain ends. Non-standard residues stand in square brackets, D forms with d. No end group written: not given here. NMeA = CN[C@@H](C)C(=O)O; dNMeA = CN[C@H](C)C(=O)O

T1: full-length human Regnase-1 with a FLAG tag on the N-terminal side and a biotin ligase BirA recognition … (human, UniProt Q5D1E8 1-599, biotinylated where required ; Biotinylated at the BirA recognition sequence where required. That sequence is not in the letters.)
T1 sequence: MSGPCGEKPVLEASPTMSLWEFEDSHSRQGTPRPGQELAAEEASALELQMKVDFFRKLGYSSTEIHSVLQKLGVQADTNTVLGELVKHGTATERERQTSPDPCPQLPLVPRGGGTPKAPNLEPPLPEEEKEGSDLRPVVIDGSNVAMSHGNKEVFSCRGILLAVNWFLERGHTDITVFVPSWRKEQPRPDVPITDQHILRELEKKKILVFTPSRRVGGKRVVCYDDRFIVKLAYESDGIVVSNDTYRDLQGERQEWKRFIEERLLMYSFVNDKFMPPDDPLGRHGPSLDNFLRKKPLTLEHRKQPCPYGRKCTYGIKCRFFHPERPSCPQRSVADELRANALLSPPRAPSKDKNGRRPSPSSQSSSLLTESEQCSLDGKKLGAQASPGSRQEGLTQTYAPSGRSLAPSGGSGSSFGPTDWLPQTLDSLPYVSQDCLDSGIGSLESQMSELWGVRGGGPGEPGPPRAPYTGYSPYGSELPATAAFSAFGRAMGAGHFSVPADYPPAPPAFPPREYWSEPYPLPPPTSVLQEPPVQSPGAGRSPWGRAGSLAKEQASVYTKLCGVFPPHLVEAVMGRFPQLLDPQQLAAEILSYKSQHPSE

T2: Reg1_301-599 (human Regnase-1 amino acids 301 to 599, FLAG tag on the N-terminal side, BirA recognition … (human))
T2 sequence (Q5D1E8 301-599, looked up): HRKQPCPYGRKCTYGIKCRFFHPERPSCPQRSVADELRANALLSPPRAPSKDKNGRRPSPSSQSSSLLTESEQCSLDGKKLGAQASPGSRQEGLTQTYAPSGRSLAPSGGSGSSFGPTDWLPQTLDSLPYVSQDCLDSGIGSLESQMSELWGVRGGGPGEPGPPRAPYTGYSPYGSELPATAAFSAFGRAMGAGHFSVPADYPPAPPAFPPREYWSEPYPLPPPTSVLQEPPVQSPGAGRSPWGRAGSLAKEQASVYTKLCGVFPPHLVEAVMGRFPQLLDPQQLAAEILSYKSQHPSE

T3: Peptide 1 (CLDSGIGSLESQMSELWGVRGG), biotin-conjugated (human, biotin-conjugated)
T3 construct: also called human Regnase-1 peptide
T3 peptide: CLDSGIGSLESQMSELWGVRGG


Assays:
[1] = target: T1, full-length human Regnase-1 with a FLAG …; test: cell-based or functional assay
[2] = target: T4, ΔCTD_Reg1 (human Regnase-1 amino acids 1 to 546, FLAG tag on the N-terminal side, BirA recognition sequence … (human)); test: cell-based or functional assay
[3] = target: T1, full-length human Regnase-1 with a FLAG …; test: cell-based or functional assay; remark: listed apart in the source
[4] = target: T4, ΔCTD_Reg1 (human Regnase-1 amino acids …); test: cell-based or functional assay; remark: listed apart in the source
[5] = target: T2, Reg1_301-599 (human Regnase-1 amino …); test: cell-based or functional assay
[6] = target: T1, full-length human Regnase-1 with a FLAG …; test: cell-based or functional assay; remark: listed apart in the source
[7] = target: T4, ΔCTD_Reg1 (human Regnase-1 amino acids …); test: cell-based or functional assay; remark: listed apart in the source
[8] = target: T2, Reg1_301-599 (human Regnase-1 amino …); test: cell-based or functional assay; remark: listed apart in the source
[9] = target: T1, full-length human Regnase-1 with a FLAG …; test: AlphaScreen, blocks IKKβ binding to FL_Reg1
[10] = target: T1, full-length human Regnase-1 with a FLAG …; test: AlphaScreen, blocks TBK1 binding to FL_Reg1
[11] = target: T1, full-length human Regnase-1 with a FLAG …; test: AlphaScreen, blocks TBK1 binding to FL_Reg1; remark: listed apart in the source
[12] = target: T1, full-length human Regnase-1 with a FLAG …; test: AlphaScreen, blocks IKKβ binding to FL_Reg1; remark: listed apart in the source
[13] = target: T1, full-length human Regnase-1 with a FLAG …; test: affinity selection-MS (SEC, LC/MS), 1 µM each
[14] = target: T1, full-length human Regnase-1 with a FLAG …; test: flow cytometry of antigen-coated streptavidin beads
[15] = target: T3, Peptide 1 (CLDSGIGSLESQMSELWGVRGG), …; test: as above

Binder | IC50, phosphorylation by IKKβ [1] [µM] | IC50, phosphorylation by TBK1 [1] [µM] | IC50, phosphorylation by IKKβ [2] [µM] | IC50, phosphorylation by TBK1 [2] [µM] | IC50, phosphorylation by TBK1 [3] [µM] | IC50, phosphorylation by TBK1 [4] [µM] | IC50, phosphorylation by TBK1 [5] [µM] | IC50, phosphorylation by IKKβ [6] [µM] | IC50, phosphorylation by IKKβ [7] [µM] | IC50, phosphorylation by IKKβ [8] [µM] | IC50 [9] [µM] | IC50 [10] [µM] | IC50 [11] [µM] | IC50 [12] [µM] | AS-MS ratio(%) [13] [%] | binding result [14] | binding result [15]
[dNMeA]PNSSWFKIWD (lactam N-11) [PP6] | 17 | 13.1 | 20.3 | 14.5 | 13.1 | 14.5 | 16.8 | 17 | 20.3 | 17.5 | 42.1 | 19.2 | 19.2 | 42.1 | 6.4 | – | –
[NMeA]YIWDFFGDLD (lactam N-11) [PP4] | 19.5 | 61.9 | 8.3 | 44.9 | 61.9 | 44.9 | 35.9 | 19.5 | 8.3 | 12.8 | 47.7 | 24.4 | 24.4 | 47.7 | 37.5 | – | –
[NMeA]HSNAWYNIWD (lactam N-11) [PP5] | 23.6 | 24.2 | 20.4 | 19.1 | 24.2 | 19.1 | 40.4 | 23.6 | 20.4 | 31.3 | 24 | 11.5 | 11.5 | 24 | 20.8 | – | –

Other lines, results leading:

IC50, phosphorylation by IKKβ [1] [µM] | IC50, phosphorylation by TBK1 [1] [µM] | IC50, phosphorylation by IKKβ [2] [µM] | IC50, phosphorylation by TBK1 [2] [µM] | IC50, phosphorylation by TBK1 [3] [µM] | IC50, phosphorylation by TBK1 [4] [µM] | IC50, phosphorylation by TBK1 [5] [µM] | IC50, phosphorylation by IKKβ [6] [µM] | IC50, phosphorylation by IKKβ [7] [µM] | IC50, phosphorylation by IKKβ [8] [µM] | IC50 [9] [µM] | IC50 [10] [µM] | IC50 [11] [µM] | IC50 [12] [µM] | AS-MS ratio(%) [13] [%] | binding result [14] | binding result [15] | Binder
– | – | – | – | – | – | – | – | – | – | – | – | – | – | – | binds | – | REB0007 (antibody, V domains shown, Rabbit antibody gene expressed in HEK293 cells, purified by Protein A; also called anti-Regnase-1 antibody; anti-non-phosphorylated Regnase-1 peptide antibody) VH: QEQLEESGGDLVKPEGSLTLTCTASGFSFNSRYWICWVRQAPGKGLEWIGCIVSGDSNTYYASWAKGRFTISKTSSTTVTLQMTSLTAADTATYFCARWYTSSRPGLWGPGTLVTVSS VL: DVVMTQTPASVSEPVGGTVTIKCQASQSISSYLSWYQQKPGQPPKLLIYSATNLASGVSSRFKGSRFGTEFTLTISDLECDDAATYYCQCSYYVSGFAFGGGTEVVVKG
– | – | – | – | – | – | – | – | – | – | – | – | – | – | – | binds | – | REB0022 (antibody, V domains shown, Rabbit antibody gene expressed in HEK293 cells, purified by Protein A; also called anti-Regnase-1 antibody; anti-non-phosphorylated Regnase-1 peptide antibody) VH: QEQLEESGGDLVKPEGSLTLTCTASGGSFSSRYWMCWVRQAPGKGLEWIACIVIGDRNNYYASWAKGRFTISKTSSTTVTLQMTSLTAADTATYFCARWHSSTAPSLWGPGTLVTVSS VL: DVVMTQTPASVSEPVGGTVTINCQASQSISSYLSWYQQKPGQPPKLLIYKASTLASGVSSRFKGSGSGTEFTLTISDLECADAATYYCQCSYYVSGFVFGGGTEVVVKG
– | – | – | – | – | – | – | – | – | – | – | – | – | – | – | binds | – | REB0014 (antibody, V domains shown, Rabbit antibody gene expressed in HEK293 cells, purified by Protein A; also called anti-Regnase-1 antibody; anti-non-phosphorylated Regnase-1 peptide antibody) VH: QSLEESGGGLVKPGGTLTLTCKASGIDFSSYYYMCWVRQAPGKGLEWIACIYSGDGSSYYVSWANGRFTISKTSSATVTLQMTSLTAADTATYFCARDLGNLWGPGTLVTVSS VL: QVLTQTPASVSAAVGGTVTINCQASQSVYKNSGLSWFQQKPGQSPKRLIYSASTLDSGVPSRFKGSGSGTQFTLTISDVQCDDAATYYCLGIYVCSSVDCGAFGGGTEVVVKG
– | – | – | – | – | – | – | – | – | – | – | – | – | – | – | binds | binds | REA0023 (antibody, V domains shown, Rabbit antibody gene expressed in HEK293 cells, purified by Protein A; also called anti-Regnase-1 antibody; anti-non-phosphorylated Regnase-1 peptide antibody) VH: QSLEESGGDLVKPGASLTLTCTDAGFSFSGVYWMHWVRQAPGKGLEWIACINAGSSGSTYYASWAKGRFTISKPSSTTVTLQMTSLTVADTATYFCARSFTLWGPGTLVTVSS VL: AVVTQTPSSVSAAVGGTVTIKCQSSQSVGNNNYLAWFQQKPGQPPKLLIYSASTLASGVPSRFSGSGSGTQFTLTISGVQCDDAATYYCLGGYDGDGEAFYVFGGGTEVVVKG
